The text below walks through data of article PMC5552277.

Broadly, the Kd is the constant that tells how readily two partners part at equilibrium. Higher therefore signals a looser complex.

For data set [1], the target named is TFAM-CTΔ26;POLRMT;TFB2M del221-246 (human;human?;human?) (UniProt Q00059+O00411+Q9H5Q4). Put plainly: DNase I footprinting. To be noted: Footprinting: 10 mM HEPES pH 7.5, 10 mM MgCl2, 10 mM CaCl2 (so in the source), 100 mM NaCl, 1 mM TCEP, 0.1 mg/mL BSA, 32°C; AFM buffer not in material.
Sequence of TFAM-CTΔ26;POLRMT;TFB2M del221-246 (human;human?;human?) (O00411 42-1230, stated change not applied, chain 2 of 2): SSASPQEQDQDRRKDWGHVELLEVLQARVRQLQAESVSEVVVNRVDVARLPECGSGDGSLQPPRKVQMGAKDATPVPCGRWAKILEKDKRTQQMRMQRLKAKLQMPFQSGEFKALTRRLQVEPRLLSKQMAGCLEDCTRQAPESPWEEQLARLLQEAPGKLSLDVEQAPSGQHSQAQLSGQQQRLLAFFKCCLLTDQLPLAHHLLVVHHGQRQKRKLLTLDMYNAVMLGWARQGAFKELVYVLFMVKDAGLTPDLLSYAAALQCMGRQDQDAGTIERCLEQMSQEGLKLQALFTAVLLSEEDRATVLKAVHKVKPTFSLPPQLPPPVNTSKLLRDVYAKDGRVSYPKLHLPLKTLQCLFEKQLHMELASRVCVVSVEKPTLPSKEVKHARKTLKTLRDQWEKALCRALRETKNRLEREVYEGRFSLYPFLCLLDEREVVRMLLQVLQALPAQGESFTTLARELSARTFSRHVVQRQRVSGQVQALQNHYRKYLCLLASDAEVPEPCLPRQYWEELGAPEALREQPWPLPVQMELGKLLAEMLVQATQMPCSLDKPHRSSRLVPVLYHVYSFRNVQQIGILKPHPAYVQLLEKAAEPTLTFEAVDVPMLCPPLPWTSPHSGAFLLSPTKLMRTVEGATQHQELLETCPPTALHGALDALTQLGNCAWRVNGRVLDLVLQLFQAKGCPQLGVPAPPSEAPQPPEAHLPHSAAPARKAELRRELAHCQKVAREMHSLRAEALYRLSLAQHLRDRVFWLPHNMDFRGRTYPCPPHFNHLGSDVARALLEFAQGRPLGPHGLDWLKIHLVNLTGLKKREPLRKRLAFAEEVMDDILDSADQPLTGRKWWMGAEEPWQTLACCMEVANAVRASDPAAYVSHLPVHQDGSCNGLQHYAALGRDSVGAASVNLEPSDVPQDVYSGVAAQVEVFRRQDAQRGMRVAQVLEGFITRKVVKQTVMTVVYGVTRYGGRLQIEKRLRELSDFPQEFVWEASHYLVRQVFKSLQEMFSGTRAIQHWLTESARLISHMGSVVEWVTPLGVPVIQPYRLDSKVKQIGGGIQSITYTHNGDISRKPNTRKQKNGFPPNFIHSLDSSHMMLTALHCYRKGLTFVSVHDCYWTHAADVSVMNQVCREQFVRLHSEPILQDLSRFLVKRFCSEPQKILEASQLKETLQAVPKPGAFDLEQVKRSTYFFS
Sequence of TFAM-CTΔ26;POLRMT;TFB2M del221-246 (human;human?;human?) (Q9H5Q4 20-396, stated change not applied, chain 3 of 2): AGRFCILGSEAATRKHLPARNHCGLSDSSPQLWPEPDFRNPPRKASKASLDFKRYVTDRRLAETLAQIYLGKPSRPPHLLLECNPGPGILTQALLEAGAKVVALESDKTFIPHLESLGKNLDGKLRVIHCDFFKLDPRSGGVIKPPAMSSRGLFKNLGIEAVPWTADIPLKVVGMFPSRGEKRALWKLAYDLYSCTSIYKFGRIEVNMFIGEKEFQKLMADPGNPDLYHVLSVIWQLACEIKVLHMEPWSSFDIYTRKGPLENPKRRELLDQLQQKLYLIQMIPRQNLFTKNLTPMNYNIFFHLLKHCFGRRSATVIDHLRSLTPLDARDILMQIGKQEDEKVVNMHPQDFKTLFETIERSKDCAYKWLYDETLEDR
Data set [2] deals with T1, TFAM (WT) (human) (UniProt Q00059).
T1 sequence: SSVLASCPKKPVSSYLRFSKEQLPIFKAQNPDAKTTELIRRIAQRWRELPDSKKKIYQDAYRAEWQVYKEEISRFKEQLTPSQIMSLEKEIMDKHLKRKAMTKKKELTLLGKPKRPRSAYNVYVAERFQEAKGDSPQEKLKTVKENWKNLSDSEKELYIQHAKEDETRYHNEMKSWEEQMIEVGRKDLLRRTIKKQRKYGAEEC
The data set is described as follows: DNase I footprinting. To be noted: Footprinting: 10 mM HEPES pH 7.5, 10 mM MgCl2, 10 mM CaCl2 (so in the source), 100 mM NaCl, 1 mM TCEP, 0.1 mg/mL BSA, 32°C; AFM buffer not in material.

The subject of data set [3] is TFAM (WT) (human). The data set is described as follows: AFM in liquid, fractional DNA contour coverage. The following applies: effective free TFAM concentration; Footprinting: 10 mM HEPES pH 7.5, 10 mM MgCl2, 10 mM CaCl2 (so in the source), 100 mM NaCl, 1 mM TCEP, 0.1 mg/mL BSA, 32°C; AFM buffer not in material.
The next data set deals with TFAM-CTΔ26 (human). Put plainly: AFM in liquid, persistence length. The following applies: 100 nM CTΔ26 (33 nm) similar to 10 nM TFAM (30 nm); no looping enhancement; Footprinting: 10 mM HEPES pH 7.5, 10 mM MgCl2, 10 mM CaCl2 (so in the source), 100 mM NaCl, 1 mM TCEP, 0.1 mg/mL BSA, 32°C; AFM buffer not in material.

On to “ATTGCTTTGAGGAGGTAAGCTACATAAACTGTGGGGGGTGTCTTTGGGGTTTGGTTGGTTCGGGGTATGGGGTTAGCAGCGGTGTGTGTGTGCTGGGTAGGATGGGCGGGGGTTGTATTGATGAGATTAGTAGTATGGGAGTGGGAGGGGAAAATAATGTGTTAGTTGGGGGGTGACTGTTAAAAGTGCATACCGCCAAAAGATAAAATTTGAAATCTGGTTAGGCTGGTGTT (double strand) [dual promoter template (DPT-WT)]”, for which the binding entry is reported as “binds more weakly” in data set [1] and “binds” with TFAM (WT) (human) [2].

On to mtDNA construct (AFM), for which the Kd in the data set on TFAM (WT) (human) [3] was found to be 59 nM. Moreover, in the data set with TFAM-CTΔ26 (human), the binding signal (fold weaker than WT TFAM) was found to be 10. In turn, puc18 control construct (AFM) yielded a Kd in the data set on TFAM (WT) (human) [3] of 200 nM.
